Experiments:
[1] = target: light-activated rhodopsin in rod outer segments (ROS) (UniProt P02699)
[2] = target: light-activated rhodopsin in rod outer segments (ROS) (UniProt P02699); remark: listed apart in the source

Sequence of UniProt P02699 (P02699 whole entry): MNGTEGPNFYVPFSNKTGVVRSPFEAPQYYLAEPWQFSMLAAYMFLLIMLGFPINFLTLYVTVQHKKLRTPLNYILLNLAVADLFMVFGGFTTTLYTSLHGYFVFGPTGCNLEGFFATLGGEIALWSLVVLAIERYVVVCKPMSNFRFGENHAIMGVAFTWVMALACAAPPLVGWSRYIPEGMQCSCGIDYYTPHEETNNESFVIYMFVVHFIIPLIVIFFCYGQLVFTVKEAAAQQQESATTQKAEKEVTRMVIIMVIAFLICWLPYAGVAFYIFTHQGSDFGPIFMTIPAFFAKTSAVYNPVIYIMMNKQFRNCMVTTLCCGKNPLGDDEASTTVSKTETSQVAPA

Substance | normalized Vmax of rhodopsin (ROS) phosphorylation when [ATP] is varied [1] [A.U.] | Km for rhodopsin, phosphorylation of light-activated rhodopsin in ROS (50 nM-5 µM) by 20 nM GRK2 with 150 nM human Gβ1γ2 and 5 µM ATP [2] [µM]
C-terminally H6-tagged bovine GRK2, wild type (S670A background) (from UniProt P21146 1-689) (enzyme) | 1.3 | 0.24
C-terminally H6-tagged bovine GRK2 L33N (S670A background) (from UniProt P21146 1-689) (enzyme) | 1 | 0.36
C-terminally H6-tagged bovine GRK2 E532A (S670A background) (from UniProt P21146 1-689) (enzyme) | 0.8 | 0.14
C-terminally H6-tagged bovine GRK2 L547N (S670A background) (from UniProt P21146 1-689) (enzyme) | 0.8 | 0.17
C-terminally H6-tagged bovine GRK2 E36A (S670A background) (from UniProt P21146 1-689) (enzyme) | 0.9 | 0.13
C-terminally H6-tagged bovine GRK2 L536N (S670A background) (from UniProt P21146 1-689) (enzyme) | 1.2 | 0.18
